Assay results published in paper PMC10786891, “Massively parallel profiling of RNA-targeting CRISPR-Cas13d”.

T1: EsCas13d, nuclease-dead (Eubacterium siraeum, UniProt B0MS50, R295A;H300A;R849A;H854A)
T1 sequence: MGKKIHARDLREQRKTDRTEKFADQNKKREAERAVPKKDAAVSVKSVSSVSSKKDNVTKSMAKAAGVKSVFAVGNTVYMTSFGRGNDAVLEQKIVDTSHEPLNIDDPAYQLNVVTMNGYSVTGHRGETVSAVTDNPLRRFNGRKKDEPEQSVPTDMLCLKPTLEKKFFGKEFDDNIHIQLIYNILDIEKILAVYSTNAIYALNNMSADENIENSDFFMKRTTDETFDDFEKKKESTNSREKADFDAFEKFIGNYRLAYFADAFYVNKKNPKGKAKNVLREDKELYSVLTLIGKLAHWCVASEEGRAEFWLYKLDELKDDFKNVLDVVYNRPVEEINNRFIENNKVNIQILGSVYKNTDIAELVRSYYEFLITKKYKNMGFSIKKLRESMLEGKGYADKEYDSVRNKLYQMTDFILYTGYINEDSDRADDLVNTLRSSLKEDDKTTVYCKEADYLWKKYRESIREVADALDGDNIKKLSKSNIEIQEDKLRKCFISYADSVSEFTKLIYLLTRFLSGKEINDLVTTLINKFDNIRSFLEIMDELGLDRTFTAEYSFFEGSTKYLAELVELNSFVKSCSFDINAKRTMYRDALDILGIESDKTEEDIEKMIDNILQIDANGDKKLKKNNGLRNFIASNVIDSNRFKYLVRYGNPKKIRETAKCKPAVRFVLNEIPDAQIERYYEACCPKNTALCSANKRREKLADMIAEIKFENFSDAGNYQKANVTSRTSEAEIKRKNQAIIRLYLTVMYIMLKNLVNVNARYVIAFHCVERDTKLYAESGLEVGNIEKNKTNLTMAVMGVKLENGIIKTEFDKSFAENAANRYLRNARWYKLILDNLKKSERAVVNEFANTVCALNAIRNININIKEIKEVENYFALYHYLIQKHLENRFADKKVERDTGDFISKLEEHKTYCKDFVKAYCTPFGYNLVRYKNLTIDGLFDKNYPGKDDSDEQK

B1: target 1 insG 3' of 14,insU 3' of 4 (mixed)
RNA 1: CACCCGUGCAAAAAUGCAGGGGUCUAAAACUGAGCGGAUAACCUCUCUAUGG
RNA 2: GGGAAUGGAUCCACAUCUACGAAUUCGUACCAUAGAGAGGGUUAUCCGCUUCACCGAGAUCGGAAGAGCACACGU
B2: target 1 del5,del11 (mixed)
RNA 1: CACCCGUGCAAAAAUGCAGGGGUCUAAAACUGAGCGGAUAACCUCUCUAUGG
RNA 2: GGGAAUGGAUCCACAUCUACGAAUUCGUACCAUAGAGAGGUAUCCCUCACCGAGAUCGGAAGAGCACACGU
B3: target 1 insC 3' of 20,insU 3' of 20 (mixed)
RNA 1: CACCCGUGCAAAAAUGCAGGGGUCUAAAACUGAGCGGAUAACCUCUCUAUGG
RNA 2: GGGAAUGGAUCCACAUCUACGAAUUCGUACCACUUAGAGAGGUUAUCCGCUCACCGAGAUCGGAAGAGCACACGU
B4: target 1 insA 3' of 21,insU 3' of 1 (mixed)
RNA 1: CACCCGUGCAAAAAUGCAGGGGUCUAAAACUGAGCGGAUAACCUCUCUAUGG
RNA 2: GGGAAUGGAUCCACAUCUACGAAUUCGUACCAAUAGAGAGGUUAUCCGCUCAUCCGAGAUCGGAAGAGCACACGU
B5: target 1 U8G,G15A (mixed)
RNA 1: CACCCGUGCAAAAAUGCAGGGGUCUAAAACUGAGCGGAUAACCUCUCUAUGG
RNA 2: GGGAAUGGAUCCACAUCUACGAAUUCGUACCAUAGAAAGGUUAGCCGCUCACCGAGAUCGGAAGAGCACACGU
B6: target 1 insC 3' of 20,insA 3' of 6 (mixed)
RNA 1: CACCCGUGCAAAAAUGCAGGGGUCUAAAACUGAGCGGAUAACCUCUCUAUGG
RNA 2: GGGAAUGGAUCCACAUCUACGAAUUCGUACCACUAGAGAGGUUAUCCAGCUCACCGAGAUCGGAAGAGCACACGU
B7: target 1 U11A,C22U (mixed)
RNA 1: CACCCGUGCAAAAAUGCAGGGGUCUAAAACUGAGCGGAUAACCUCUCUAUGG
RNA 2: GGGAAUGGAUCCACAUCUACGAAUUCGUAUCAUAGAGAGGAUAUCCGCUCACCGAGAUCGGAAGAGCACACGU
B8: target 1 C4G,G5C (mixed)
RNA 1: CACCCGUGCAAAAAUGCAGGGGUCUAAAACUGAGCGGAUAACCUCUCUAUGG
RNA 2: GGGAAUGGAUCCACAUCUACGAAUUCGUACCAUAGAGAGGUUAUCCCGUCACCGAGAUCGGAAGAGCACACGU
B9: target 1 C4G,U10C (mixed)
RNA 1: CACCCGUGCAAAAAUGCAGGGGUCUAAAACUGAGCGGAUAACCUCUCUAUGG
RNA 2: GGGAAUGGAUCCACAUCUACGAAUUCGUACCAUAGAGAGGUCAUCCGGUCACCGAGAUCGGAAGAGCACACGU
B10: target 1 insU 3' of 21,insA 3' of 4 (mixed)
RNA 1: CACCCGUGCAAAAAUGCAGGGGUCUAAAACUGAGCGGAUAACCUCUCUAUGG
RNA 2: GGGAAUGGAUCCACAUCUACGAAUUCGUACCUAUAGAGAGGUUAUCCGCAUCACCGAGAUCGGAAGAGCACACGU
B11: target 1 U11C,G13A (mixed)
RNA 1: CACCCGUGCAAAAAUGCAGGGGUCUAAAACUGAGCGGAUAACCUCUCUAUGG
RNA 2: GGGAAUGGAUCCACAUCUACGAAUUCGUACCAUAGAGAAGCUAUCCGCUCACCGAGAUCGGAAGAGCACACGU
B12: target 1 G12C,A14C (mixed)
RNA 1: CACCCGUGCAAAAAUGCAGGGGUCUAAAACUGAGCGGAUAACCUCUCUAUGG
RNA 2: GGGAAUGGAUCCACAUCUACGAAUUCGUACCAUAGAGCGCUUAUCCGCUCACCGAGAUCGGAAGAGCACACGU
B13: target 1 insG 3' of 10,insU 3' of 2 (mixed)
RNA 1: CACCCGUGCAAAAAUGCAGGGGUCUAAAACUGAGCGGAUAACCUCUCUAUGG
RNA 2: GGGAAUGGAUCCACAUCUACGAAUUCGUACCAUAGAGAGGUUGAUCCGCUCUACCGAGAUCGGAAGAGCACACGU
B14: target 1 insC 3' of 15,insA 3' of 11 (mixed)
RNA 1: CACCCGUGCAAAAAUGCAGGGGUCUAAAACUGAGCGGAUAACCUCUCUAUGG
RNA 2: GGGAAUGGAUCCACAUCUACGAAUUCGUACCAUAGAGCAGGUAUAUCCGCUCACCGAGAUCGGAAGAGCACACGU
B15: target 1 insU 3' of 21,insU 3' of 18 (mixed)
RNA 1: CACCCGUGCAAAAAUGCAGGGGUCUAAAACUGAGCGGAUAACCUCUCUAUGG
RNA 2: GGGAAUGGAUCCACAUCUACGAAUUCGUACCUAUAUGAGAGGUUAUCCGCUCACCGAGAUCGGAAGAGCACACGU
B16: target 1 insA 3' of 22,insU 3' of 22 (mixed)
RNA 1: CACCCGUGCAAAAAUGCAGGGGUCUAAAACUGAGCGGAUAACCUCUCUAUGG
RNA 2: GGGAAUGGAUCCACAUCUACGAAUUCGUACAUCAUAGAGAGGUUAUCCGCUCACCGAGAUCGGAAGAGCACACGU
B17: target 1 C6A,U10C (mixed)
RNA 1: CACCCGUGCAAAAAUGCAGGGGUCUAAAACUGAGCGGAUAACCUCUCUAUGG
RNA 2: GGGAAUGGAUCCACAUCUACGAAUUCGUACCAUAGAGAGGUCAUCAGCUCACCGAGAUCGGAAGAGCACACGU
B18: target 1 C2A,U11G (mixed)
RNA 1: CACCCGUGCAAAAAUGCAGGGGUCUAAAACUGAGCGGAUAACCUCUCUAUGG
RNA 2: GGGAAUGGAUCCACAUCUACGAAUUCGUACCAUAGAGAGGGUAUCCGCUAACCGAGAUCGGAAGAGCACACGU
B19: target 1 insA 3' of 21,insC 3' of 1 (mixed)
RNA 1: CACCCGUGCAAAAAUGCAGGGGUCUAAAACUGAGCGGAUAACCUCUCUAUGG
RNA 2: GGGAAUGGAUCCACAUCUACGAAUUCGUACCAAUAGAGAGGUUAUCCGCUCACCCGAGAUCGGAAGAGCACACGU
B20: target 1 insG 3' of 10,insA 3' of 4 (mixed)
RNA 1: CACCCGUGCAAAAAUGCAGGGGUCUAAAACUGAGCGGAUAACCUCUCUAUGG
RNA 2: GGGAAUGGAUCCACAUCUACGAAUUCGUACCAUAGAGAGGUUGAUCCGCAUCACCGAGAUCGGAAGAGCACACGU
B21: target 1 insC 3' of 15,insU 3' of 12 (mixed)
RNA 1: CACCCGUGCAAAAAUGCAGGGGUCUAAAACUGAGCGGAUAACCUCUCUAUGG
RNA 2: GGGAAUGGAUCCACAUCUACGAAUUCGUACCAUAGAGCAGGUUUAUCCGCUCACCGAGAUCGGAAGAGCACACGU
B22: target 1 complement block 2-10 (mixed)
RNA 1: CACCCGUGCAAAAAUGCAGGGGUCUAAAACUGAGCGGAUAACCUCUCUAUGG
RNA 2: GGGAAUGGAUCCACAUCUACGAAUUCGUACCAUAGAGAGGUAUAGGCGAGACCGAGAUCGGAAGAGCACACGU
B23: target 1 G15U,G17U (mixed)
RNA 1: CACCCGUGCAAAAAUGCAGGGGUCUAAAACUGAGCGGAUAACCUCUCUAUGG
RNA 2: GGGAAUGGAUCCACAUCUACGAAUUCGUACCAUAUAUAGGUUAUCCGCUCACCGAGAUCGGAAGAGCACACGU
B24: target 1 insG 3' of 9,insC 3' of 8 (mixed)
RNA 1: CACCCGUGCAAAAAUGCAGGGGUCUAAAACUGAGCGGAUAACCUCUCUAUGG
RNA 2: GGGAAUGGAUCCACAUCUACGAAUUCGUACCAUAGAGAGGUUAGUCCCGCUCACCGAGAUCGGAAGAGCACACGU
B25: target 1 insC 3' of 15,insU 3' of 7 (mixed)
RNA 1: CACCCGUGCAAAAAUGCAGGGGUCUAAAACUGAGCGGAUAACCUCUCUAUGG
RNA 2: GGGAAUGGAUCCACAUCUACGAAUUCGUACCAUAGAGCAGGUUAUCUCGCUCACCGAGAUCGGAAGAGCACACGU
B26: target 1 insG 3' of 22,insG 3' of 2 (mixed)
RNA 1: CACCCGUGCAAAAAUGCAGGGGUCUAAAACUGAGCGGAUAACCUCUCUAUGG
RNA 2: GGGAAUGGAUCCACAUCUACGAAUUCGUACGCAUAGAGAGGUUAUCCGCUCGACCGAGAUCGGAAGAGCACACGU
B27: target 1 insA 3' of 21,insA 3' of 2 (mixed)
RNA 1: CACCCGUGCAAAAAUGCAGGGGUCUAAAACUGAGCGGAUAACCUCUCUAUGG
RNA 2: GGGAAUGGAUCCACAUCUACGAAUUCGUACCAAUAGAGAGGUUAUCCGCUCAACCGAGAUCGGAAGAGCACACGU
B28: target 1 G5A,A16C (mixed)
RNA 1: CACCCGUGCAAAAAUGCAGGGGUCUAAAACUGAGCGGAUAACCUCUCUAUGG
RNA 2: GGGAAUGGAUCCACAUCUACGAAUUCGUACCAUAGCGAGGUUAUCCACUCACCGAGAUCGGAAGAGCACACGU

molecular target: T1, EsCas13d, nuclease-dead; test: crRNA (strand 1, pre-loaded); Mg2+; 40 mM Tris-HCl pH 7.5, 150 mM NaCl, 6 mM MgCl2, 1 mM DTT, 0.1% Tween-20, 0.2 mg/ml BSA; 25 C; 10 min per concentration, then washed; conditions: tags: His6-TwinStrep-SUMO cleaved; N-terminal SNAP kept (SNAP-Surface 488); label: 3' end held by stalled T7 RNA polymerase

Binder	Kd
B1	11.7 ± 1.1 nM
B2	30 ± 1.5 nM
B3	18.3 ± 0.9 nM
B4	18.5 ± 1.3 nM
B5	56 ± 6 nM
B6	11.1 ± 0.6 nM
B7	52 ± 16 nM
B8	15.7 ± 1 nM
B9	5.15 ± 0.3 nM
B10	15.6 ± 1.3 nM
B11	8.7 ± 1.3 nM
B12	89 ± 33 nM
B13	24.7 ± 1.7 nM
B14	79 ± 18 nM
B15	52 ± 5 nM
B16	12.5 ± 1 nM
B17	18.8 ± 1.4 nM
B18	16.6 ± 1 nM
B19	13.7 ± 0.7 nM
B20	35 ± 5 nM
B21	14.6 ± 0.9 nM
B22	13.3 ± 0.6 nM
B23	86 ± 21 nM
B24	29.5 ± 2.9 nM
B25	17.1 ± 0.9 nM
B26	38 ± 5 nM
B27	17.7 ± 1 nM
B28	57 ± 12 nM
